Experimental findings from patent US20220162341A1 (published 2022) are described below.

The target of experiment [1] is T1, ASPH (aspartyl (asparaginyl) β-hydroxylase) (Homo sapiens (Human)) (UniProt Q12797).
T1 sequence: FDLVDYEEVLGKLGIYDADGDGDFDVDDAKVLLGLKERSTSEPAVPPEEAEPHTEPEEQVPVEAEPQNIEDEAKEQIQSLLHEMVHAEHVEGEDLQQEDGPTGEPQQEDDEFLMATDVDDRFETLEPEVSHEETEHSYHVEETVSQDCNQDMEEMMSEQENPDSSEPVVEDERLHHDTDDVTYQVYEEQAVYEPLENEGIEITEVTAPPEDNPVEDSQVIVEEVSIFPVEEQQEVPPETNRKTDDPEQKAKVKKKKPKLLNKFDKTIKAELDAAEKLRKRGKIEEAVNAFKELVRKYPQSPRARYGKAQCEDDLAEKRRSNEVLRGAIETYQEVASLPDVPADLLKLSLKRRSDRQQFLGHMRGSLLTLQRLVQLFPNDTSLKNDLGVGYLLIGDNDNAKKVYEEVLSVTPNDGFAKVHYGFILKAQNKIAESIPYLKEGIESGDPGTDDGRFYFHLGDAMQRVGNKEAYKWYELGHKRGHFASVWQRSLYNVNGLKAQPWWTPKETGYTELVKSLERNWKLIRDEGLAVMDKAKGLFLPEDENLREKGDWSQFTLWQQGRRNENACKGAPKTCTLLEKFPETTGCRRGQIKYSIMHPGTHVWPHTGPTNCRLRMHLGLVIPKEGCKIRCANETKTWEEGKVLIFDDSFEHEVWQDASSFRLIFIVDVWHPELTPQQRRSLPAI
The experiment is described as follows: SPR (SensiQ Pioneer), antibody captured via Protein G, ASPH as analyte.

Experiment [2] concerns the target T2, ASPH (aspartyl (asparaginyl) β-hydroxylase) (Homo sapiens (Human), UniProt Q12797 75-758, limits assumed).
T2 construct: The antibodies were raised against a peptide of human ASPH; also called the ASPH protein
T2 sequence: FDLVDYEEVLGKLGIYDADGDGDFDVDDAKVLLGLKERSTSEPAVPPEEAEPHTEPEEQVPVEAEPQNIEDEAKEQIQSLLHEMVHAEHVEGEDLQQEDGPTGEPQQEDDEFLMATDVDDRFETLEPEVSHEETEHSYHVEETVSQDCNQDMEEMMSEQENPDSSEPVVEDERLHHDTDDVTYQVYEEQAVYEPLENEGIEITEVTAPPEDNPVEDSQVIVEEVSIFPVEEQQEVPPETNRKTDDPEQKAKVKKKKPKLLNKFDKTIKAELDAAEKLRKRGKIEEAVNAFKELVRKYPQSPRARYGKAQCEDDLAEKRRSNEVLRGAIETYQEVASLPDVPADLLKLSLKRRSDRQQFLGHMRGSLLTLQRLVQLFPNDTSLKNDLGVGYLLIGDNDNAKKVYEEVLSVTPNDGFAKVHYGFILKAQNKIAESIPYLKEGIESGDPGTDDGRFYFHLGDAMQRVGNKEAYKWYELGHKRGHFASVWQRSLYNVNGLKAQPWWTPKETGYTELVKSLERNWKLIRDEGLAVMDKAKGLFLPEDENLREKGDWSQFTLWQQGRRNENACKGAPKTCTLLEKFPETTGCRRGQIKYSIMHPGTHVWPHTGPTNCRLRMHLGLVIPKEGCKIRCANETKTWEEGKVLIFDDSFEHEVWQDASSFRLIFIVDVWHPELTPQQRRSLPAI
The description is as above.

B1: 5H4/5K3 (antibody, V domains shown)
VH: QSLEESGGDLVKPGASLTLTCKASGFDFSSNAMCWVRQAPGKGPEWIACIDNGDGSTDYATWAKGRFTISKTSSTTVTLQMTSLTAADTATYFCTRNFNLWGQGTLVTVSS
VL: AQVLTQTASSVSAAVGGTVTISCQSSQSVYDNNRLAWFQQKPGQPPKLLIYETSKLASGVPLRFKGSGSGTQFTLTISDLECDDAATYYCLGSYSGYIYTFGGGTEVVVKG
What is called Kd is the equilibrium constant for the complex coming apart. The koff is the rate constant with which the complex falls apart. High values mean a short-lived complex, low ones a long-lived complex. Broadly, the kon is the second-order rate constant of association. As for B1, in experiment [1], the Kd came out at 0.144 µM, the koff came to 0.00243 s⁻¹ and the kon was determined as 16800 M⁻¹ s⁻¹.

B2: 5H1/5K1 (antibody, V domains shown)
VH: QSLEESGGDLVKPGASLTLTCKASGFDFSSNAMCWVRQAPGKGPEWIACIDNGDGSTDYATWAKGRFTISKTSSTTVTLQMTSLTAADTATYFCTRNFNLWGQGTLVTVSS
VL: AQVLTQTASSVSAAVGGTVTISCQSSQSVYDNNRLAWFQQKPGQPPKLLIYETSKLASGVPLRFKGSGSGTQFTLTISDLECDDAATYYCLGSYSGYIYTFGGGTEVVVK
Regarding B2, in experiment [2], the Kd amounted to 0.118 µM and the association rate constant (kon) came to 20400 M⁻¹ s⁻¹.
